According to patent publication US20060265769A1 (BETH ISRAEL DEACONESS MEDICAL CENTER, published 2006):

T1: SHP-2 (UniProt P35235 2-593)
T1 sequence (looked up): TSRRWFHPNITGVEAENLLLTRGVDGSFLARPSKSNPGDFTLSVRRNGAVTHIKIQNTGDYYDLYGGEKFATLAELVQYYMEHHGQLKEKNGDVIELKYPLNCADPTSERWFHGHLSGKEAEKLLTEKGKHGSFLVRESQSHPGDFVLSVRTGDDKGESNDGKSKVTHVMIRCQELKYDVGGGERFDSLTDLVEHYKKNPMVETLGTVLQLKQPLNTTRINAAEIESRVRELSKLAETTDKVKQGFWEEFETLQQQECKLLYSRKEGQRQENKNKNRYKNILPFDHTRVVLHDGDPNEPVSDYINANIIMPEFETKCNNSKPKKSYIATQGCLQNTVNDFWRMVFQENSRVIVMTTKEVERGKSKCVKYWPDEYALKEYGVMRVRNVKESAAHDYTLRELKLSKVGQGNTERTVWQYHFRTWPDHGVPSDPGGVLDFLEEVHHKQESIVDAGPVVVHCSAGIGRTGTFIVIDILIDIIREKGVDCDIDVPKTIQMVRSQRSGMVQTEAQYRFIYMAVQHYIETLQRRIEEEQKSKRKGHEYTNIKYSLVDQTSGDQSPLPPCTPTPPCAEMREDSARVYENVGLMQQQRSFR

B1: Gab2HA (other, not shown: small tags and cut ends)
chain: MSGGGGDDVVCTGWLRKSPPEKKLRRYAWKKRWFILRSGRMSGDPDVLEYYKNEHSKKPLRIINLNLCEQVDAGLTFNKKELQDSFVFDIKTSERTFYLVAETEADMNKWVQSICQICGFNQAEESTDSLRNLSSASHGPRSSPAEFSSSQHLLRERKSSAPSHSSQPTLFTFEPPVSSHMQPTLSTSAPQEYLYLHQCISRRTENARSASFSQGTRQKSDTAVQKLAQSNGHCINGVGGQVHGFYSLPKPSRHNTEFKDSTYDLPRSLASHGHTKSSLTGSETDNEDVYTFKMPSNTLCRELGDLLVDNMDVPTTPLSAYQIPRTFTLDKNHNAMTVATPGDSAIAPPPRPPKPSQAETSQWGSIQQRPPISENSRSVAATIPRRNTLPAMDNSRLHRASSCETYEYPARGSGESASWSAEPPGKTAVGRSNSASSDDNYVPMNPGSSTLLAMERPGDNSQSVYIPMSPGPHHFDPLGYPSTALPIHRGPSRGSEIQPPPVNRNLKPDRKAKPTPLDLRNNTVIDELPFKSPVTKSWSRINSHTFNSSSSQYCRPISTQSITSTDSGDSEENYVPMQNPVSASPVPSGTNSPAPKKSTGSVDYLALDFQPGSPSPHRKPSTSSVTSDEKVDYVQVDKEKTQALQNTMQEWTDVRQSSEPSKGAKL
modifications: tyrosyl phosphorylated upon IL-3 stimulation

Columns and labels:
Gab2 = molecular target: T2, Gab2 (mouse, UniProt Q9Z1S8 1-665, tyrosyl phosphorylated upon stimulation (Y604 and Y633 said to be highly phosphorylated)); experiment: co-immunoprecipitation and immunoblotting, BaF3 cells
T2 construct: Scaffolding protein; Endogenous protein in lysates of BaF3, BAC1.2F5 and P210BCR-ABL BaF3 cells; also called p97; p97/Gab2

Gab2HA = molecular target: B1; experiment: as above
SHP-2 = molecular target: T1, SHP-2; experiment: cell-based or functional assay

Row | Binder | binding result (Gab2) | binding result (Gab2HA) | basal c-fos luciferase activity in BaF3 cells (SHP-2) [fold]
1 | Crk (other, UniProt Q64010 2-304, looked up) AGNFDSEERSSWYWGRLSRQEAVALLQGQRHGVFLVRDSSTSPGDYVLSVSENSRVSHYIINSSGPRPPVPPSPAQPPPGVSPSRLRIGDQEFDSLPALLEFYKIHYLDTTTLIEPVARSRQGSGVILRQEEAEYVRALFDFNGNDEEDLPFKKGDILRIRDKPEEQWWNAEDSEGKRGMIPVPYVEKYRPASASVSALIGGNQEGSHPQPLGGPEPGPYAQPSVNTPLPNLQNGPIYARVIQKRVPNAYDKTALALEVGELVKVTKINVSGQWEGECNGKRGHFPFTHVRLLDQQNPDEDFS | no binding | no binding | 
2 | Crk-II (other, UniProt Q64010-1 2-304, looked up) AGNFDSEERSSWYWGRLSRQEAVALLQGQRHGVFLVRDSSTSPGDYVLSVSENSRVSHYIINSSGPRPPVPPSPAQPPPGVSPSRLRIGDQEFDSLPALLEFYKIHYLDTTTLIEPVARSRQGSGVILRQEEAEYVRALFDFNGNDEEDLPFKKGDILRIRDKPEEQWWNAEDSEGKRGMIPVPYVEKYRPASASVSALIGGNQEGSHPQPLGGPEPGPYAQPSVNTPLPNLQNGPIYARVIQKRVPNAYDKTALALEVGELVKVTKINVSGQWEGECNGKRGHFPFTHVRLLDQQNPDEDFS | no binding | no binding | 
3 | Crk-L (other, UniProt P47941 1-303, looked up) MSSARFDSSDRSAWYMGPVTRQEAQTRLQGQRHGMFLVRDSSTCPGDYVLSVSENSRVSHYIINSLPNRRFKIGDQEFDHLPALLEFYKIHYLDTTTLIEPAPRYPSPPVGSVSAPNLPTAEENLEYVRTLYDFPGNDAEDLPFKKGELLVIIEKPEEQWWSARNKDGRVGMIPVPYVEKLVRSSPHGKHGNRNSNSYGIPEPAHAYAQPQTTTPLPTVASTPGAAINPLPSTQNGPVFAKAIQKRVPCAYDKTALALEVGDIVKVTRMNINGQWEGEVNGRKGLFPFTHVKIFDPQNPDDNE | no binding | no binding | 
4 | B1 |  |  | ~2
